Experimental findings from US20260166168A1 (MEDILINK THERAPEUTICS SUZHOU, published 2026) are described below.

The term EC50 denotes the concentration at which the effect is half-maximal. As a reminder, the Kd is the equilibrium constant for the complex coming apart. The term koff denotes a measure of how fast the partners let go of each other. What is called kon is the rate constant with which the complex forms. As a reminder, the EC50 (read off the curve) is the concentration giving half of the maximal effect.

To fix the notation:
T1: recombinant extracellular domain protein of human DLL3 (h.DLL3-ECD-His) (human, UniProt Q9NYJ7 27-492)
T1 construct: extracellular domain; Commercial protein; also called human DLL3 antigen; not shown: His tag
T1 sequence (looked up): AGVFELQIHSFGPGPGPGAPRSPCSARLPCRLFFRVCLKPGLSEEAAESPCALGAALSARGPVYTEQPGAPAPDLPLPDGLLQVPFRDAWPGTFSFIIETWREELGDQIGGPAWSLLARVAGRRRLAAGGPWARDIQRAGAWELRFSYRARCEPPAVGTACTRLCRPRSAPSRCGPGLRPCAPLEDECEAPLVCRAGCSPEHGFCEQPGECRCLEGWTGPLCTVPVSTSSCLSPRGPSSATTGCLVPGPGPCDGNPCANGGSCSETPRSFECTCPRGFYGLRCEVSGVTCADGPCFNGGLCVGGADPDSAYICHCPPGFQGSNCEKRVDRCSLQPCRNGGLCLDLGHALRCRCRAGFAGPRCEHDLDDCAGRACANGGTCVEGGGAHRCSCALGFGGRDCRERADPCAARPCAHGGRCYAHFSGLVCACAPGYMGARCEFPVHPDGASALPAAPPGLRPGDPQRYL

T2: recombinant extracellular domain protein of cynomolgus monkey DLL3 (cyno.DLL3-ECD-His) (cynomolgus monkey, UniProt A0A2K5WSR1 27-490)
T2 construct: extracellular domain; Commercial protein; not shown: His tag
T2 sequence: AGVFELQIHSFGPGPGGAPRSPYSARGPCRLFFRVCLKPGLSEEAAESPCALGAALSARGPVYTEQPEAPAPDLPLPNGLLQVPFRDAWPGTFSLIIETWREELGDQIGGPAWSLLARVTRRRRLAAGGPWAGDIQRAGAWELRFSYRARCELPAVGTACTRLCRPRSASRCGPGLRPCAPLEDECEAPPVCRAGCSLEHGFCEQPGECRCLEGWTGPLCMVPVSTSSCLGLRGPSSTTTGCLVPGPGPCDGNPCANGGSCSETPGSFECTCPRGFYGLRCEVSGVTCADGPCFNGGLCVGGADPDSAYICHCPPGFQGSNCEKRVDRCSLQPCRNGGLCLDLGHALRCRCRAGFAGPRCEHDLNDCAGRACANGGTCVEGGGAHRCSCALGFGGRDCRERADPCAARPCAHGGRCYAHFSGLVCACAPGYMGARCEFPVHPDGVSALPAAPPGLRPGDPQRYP

T3: human DLL1 on 293T-hDLL1 cells (human, UniProt O00548 18-723)
T3 construct: whole, on cells; also called 293T-DLL1; HEK293T-hDLL1
T3 sequence (looked up): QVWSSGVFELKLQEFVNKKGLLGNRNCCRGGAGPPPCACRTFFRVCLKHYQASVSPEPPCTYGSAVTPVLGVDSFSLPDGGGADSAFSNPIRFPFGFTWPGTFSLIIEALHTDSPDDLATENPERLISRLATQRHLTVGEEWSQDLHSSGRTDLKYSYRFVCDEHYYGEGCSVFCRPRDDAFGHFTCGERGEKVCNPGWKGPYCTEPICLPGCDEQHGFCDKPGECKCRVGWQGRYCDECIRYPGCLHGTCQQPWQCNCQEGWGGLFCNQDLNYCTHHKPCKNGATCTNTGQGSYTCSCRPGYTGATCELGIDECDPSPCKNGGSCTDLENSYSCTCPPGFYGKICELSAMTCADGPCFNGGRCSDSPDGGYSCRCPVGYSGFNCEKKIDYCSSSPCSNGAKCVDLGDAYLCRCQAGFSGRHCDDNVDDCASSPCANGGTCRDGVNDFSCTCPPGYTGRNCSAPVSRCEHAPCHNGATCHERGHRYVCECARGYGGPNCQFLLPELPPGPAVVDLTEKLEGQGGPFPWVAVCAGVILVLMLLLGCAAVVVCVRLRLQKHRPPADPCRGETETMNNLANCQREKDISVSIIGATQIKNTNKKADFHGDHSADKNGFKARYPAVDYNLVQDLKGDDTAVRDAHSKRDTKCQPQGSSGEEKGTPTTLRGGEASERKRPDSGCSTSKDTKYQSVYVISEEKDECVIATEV

B1: 59B10D3-Hz antibody (antibody, human IgG1, kappa, V domains shown)
VH: EVQLVESGGGLVQPGGSLRLSCAASGFTFSDAWMDWVRQAPGKGLEWVAEIRNKANNHATYYVDSVKGRFTISRDDAKNSVYLQMNSLRAEDTAVYYCTRNNYGSTWTYYAMDYWGQGTLVTVSS
VL: DIQMTQSPSSLSASVGDRVTITCRASQDISNYLNWYQQKPGKAVKLLIYYTSRLHSGVPSRFSGSGSGTDYTLTISSLQPEDFATYYCQQGYTLPLTFGQGTKVEIKR
notes: Humanized; also called 59B10D3-hz1
B2: 6F11C10-Hz1 antibody (antibody, human IgG1, kappa, V domains shown)
VH: EVQLVQSGAEVKKPGASVKVSCKASGFTFTDYYMHWVRQAPGQSLEWMGLVYPYNGDISYAQKFQGRVTLTVDTSISTAYMELSRLRSDDTAVYYCARQGNYVNNAIDYWGQGTLVTVSS
VL: DIQMTQSPSSLSASVGDRVTITCKASQNVGNIIAWYQQKPGKSPKALIYLASYRYSGVPSRFSGSGSGTDFTLTISSLQPEDVATYFCQQYSDSPYTFGQGTKVEIKR
notes: Humanized IgG1/kappa
B3: 55C11E4-Hz1 (antibody, human IgG1, kappa, V domains shown)
VH: EVQLVQSGAEVKKPGASVKVSCKASGYTFTDYYMNWVRQAPGQRLEWMGVINPYNGGTNYSQKFQGRVTLTVDKSASTAYMELSSLRSEDTAVYYCARDSNYVGLLDYWGQGTLVTVSS
VL: DIVLTQSPATLSLSPGERATLSCRASQSISNNLHWYQQKPGQAPRLLIKYASQSISGIPARFSGSGSGPDFTLTISSLEPEDFAVYFCQQSNSWPYTFGQGTKVEIKR
notes: Humanized IgG1/kappa
B4: 87F7F10-Hz (antibody, human IgG1, kappa, V domains shown)
VH: QVQLQESGPGLVKPSETLSLTCTVSGYSITSDFYWNWIRQPPGKGLEWIGYITYDGSTNYNPSLKSRVTISRDTSKNQFSLKLSSVTAADTAVYYCVYGDFNRHAMDYWGQGTLVTVSS
VL: DIVMTQSPDSLAVSLGERATINCRSSQSLFNSRTRKNYLAWYQQKPGQPPKVLIYWASTRESGVPDRFSGSGSGTDFTLTISSLQAEDVAVYYCEQSFYLFTFGQGTKVEIKR
notes: Humanized; also called 87F7F10-hz1
B5: 10F2F3-Hz antibody (antibody, human IgG1, kappa, V domains shown)
VH: QVQLVESGAEVKKPGSSVKVSCKASGYAFSSHWVNWVRQAPGQGLEWMGQIYPGNGDTNYAQKFQGRVTLTADKSTSTAYMELSSLTSEDTAVYFCARWFAYWGQGTLVTVSS
VL: DIQMTQSPSSLSASVGDRVTITCKSSQSLLDGGNQKNYLAWYQQKPGKPPKLLVYFASIRESGVPSRFSGSGSGTDFTLTISSLQPEDFATYYCQQHYNTPWTFGQGTKVEIKR
notes: Humanized
B6: DL301 (antibody, V domains shown)
VH: QVQLQQSGADLVRPGTSVKVSCKASGYAFTNYLIEWIKQRPGQGLEWIGVMNPGSGGTHYSEKFRGKATLTADKSSSTAYMQLISLTSDDSAVYFCARSDYDYVTYAMDYWGQGTSVTVSS
VL: DIKMTQSPSSMYASLGERVTITCKASQDINSYLIWFQQKPGKSPKTLIYRTNRLVDGVPSRFSGSGSGQDYSLTISSLEYGDMGIYYCLQYDEFPFTFGSGTKLEIK
B7: DL306 (antibody, V domains shown)
VH: EVQLQQSGPELVKPGASVKMSCRASGYTFTDYYMKWVKQSHGKSLEWIGDINPNNGDTFYNQKFKGKATLTIDKSSSTAYMQLNSLTSDDSAVYYCARDGNYAYFDYWGQGTTLTVSS
VL: DIVLTQSPASLAVSLGQRATISCRASKSVSTSGYSYMHWYQQKPGQPPKLLIFLASNLESGVPARFSGSGSGTDFTLNIHPVEEEDAATYYCQHSRHLPWTFGGGTKLEIK
B8: DL309 (antibody, V domains shown)
VH: QVQLQQSGGDLMKPGASVKISCKAAGYTFSNYYIEWVKQRPGHGLEWIGEILPGSGSTTYNEKFKGKASFTADTSSNTAYMQLSSLTSEDSAVYYCARWGAREPGFPYWGQGTLVTVSA
VL: DIVMTQSQKFMSTSVGDRVSVTCKASQNVGTNVAWYQQKPGQSPKALIYSASYRYSGVPDRFTGSGSGTDFTLTISNVQSEDLAEYFCQQYNNYPLTFGAGTKLELK
B9: DL312 (antibody, V domains shown)
VH: EVKLVESGGGLVQPGGSLSLSCAASGFTFTDYYMNWVRQPPGKALEWLALIRNKANGYTTEYNASVKGRFTISRDNSQNILYLQMNALRAEDSATYYCARDSDGYYEYYFDYWGQGTTLTVSS
VL: DIQMTQSPSSLSASLGERVSLTCRASQEISDYLSWLQQKPDGTIKRLIFAASTLDSGVPKRFSGSRSGSDFSLSISSLESEDFADYYCLQYASYPYTFGSGTKLEIK

T4 sequence (Q9NR61 27-685): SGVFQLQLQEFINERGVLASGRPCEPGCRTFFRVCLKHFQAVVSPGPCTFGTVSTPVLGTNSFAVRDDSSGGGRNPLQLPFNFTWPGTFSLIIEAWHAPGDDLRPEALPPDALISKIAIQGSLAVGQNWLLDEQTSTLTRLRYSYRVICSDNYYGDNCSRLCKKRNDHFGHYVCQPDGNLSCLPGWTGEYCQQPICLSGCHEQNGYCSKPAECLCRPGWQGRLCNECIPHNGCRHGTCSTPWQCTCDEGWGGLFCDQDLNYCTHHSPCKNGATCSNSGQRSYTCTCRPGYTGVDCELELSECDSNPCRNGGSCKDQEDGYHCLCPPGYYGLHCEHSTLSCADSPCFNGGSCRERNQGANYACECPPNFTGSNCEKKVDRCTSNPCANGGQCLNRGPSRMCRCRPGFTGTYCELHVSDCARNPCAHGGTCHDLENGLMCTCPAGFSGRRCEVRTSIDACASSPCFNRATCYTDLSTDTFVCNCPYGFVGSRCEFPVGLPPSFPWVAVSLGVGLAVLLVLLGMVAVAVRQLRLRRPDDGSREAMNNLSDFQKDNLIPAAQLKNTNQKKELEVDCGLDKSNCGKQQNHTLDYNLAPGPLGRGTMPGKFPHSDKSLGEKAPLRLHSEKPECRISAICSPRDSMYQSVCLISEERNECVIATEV

The first assay concerns the target T1, recombinant extracellular domain …. Briefly: ELISA, coated h.DLL3-ECD-his 0.2 µg/mL, antibody titrated. Background: In an ELISA, binding on a coated surface is turned into a signal by an enzyme label.
As for B1, the EC50 worked out at 5.2 ng/mL.
Take B2: the EC50 came to 4.7 ng/mL.
Take B3: the EC50 was 3.9 ng/mL.
B4: the EC50 is 3.8 ng/mL.
Take B5: the EC50 came to 3.4 ng/mL.

In another assay the target is T2, recombinant extracellular domain …. Briefly: BLI (ForteBio), antibody on ProA sensor, cynoDLL3-ECD-His in solution. A general note: Biolayer interferometry detects binding as a change in optical thickness at a sensor tip.
Regarding B1, the Kd was determined as 9.08 nM, the koff is 0.000908 s⁻¹ and the association rate constant (kon) turned out to be 100000 M⁻¹ s⁻¹.
The like results for B2 were, in that order, 0.873 nM, 0.000328 s⁻¹ and 375000 M⁻¹ s⁻¹.
On the same counts, the results for B3 are 2.37 nM, 0.000479 s⁻¹ and 202000 M⁻¹ s⁻¹.
The like results for B4 were, in that order, 2.41 nM, 8.84e-05 s⁻¹ and 36700 M⁻¹ s⁻¹.
In the case of B5, the Kd was found to be 1.28 nM, the koff amounted to 0.000122 s⁻¹ and the kon turned out to be 95100 M⁻¹ s⁻¹.

The target of another assay is T1, recombinant extracellular domain …. Briefly: ELISA, titrated antibody on plate-coated human DLL3, OD450nm.
As for B6, the “EC50 (read off the curve)” value is ~4 ng/mL.
Still for that read-out and setting: the result for B7 reads ~5 ng/mL; that for B8, ~6 ng/mL; that for B9, ~5 ng/mL.

The next assay shares this target. Briefly: BLI (ForteBio), antibody on ProA sensor, hDLL3-ECD-His in solution.
Take B1: the Kd was found to be 14 nM, the koff was 0.0017 s⁻¹ and the kon was 122000 M⁻¹ s⁻¹.
The like results for B2 were, in that order, 0.243 nM, 4.27e-05 s⁻¹ and 175000 M⁻¹ s⁻¹.
For B3, the Kd was 5.26 nM, the koff was 0.000652 s⁻¹ and the kon amounted to 124000 M⁻¹ s⁻¹.
Take B4: the Kd came to 8.57 nM, the koff came out at 0.000218 s⁻¹ and the on-rate (kon) came to 25400 M⁻¹ s⁻¹.
As to B5, the Kd was 6.07 nM, the off-rate (koff) is 0.00045 s⁻¹ and the kon worked out at 74200 M⁻¹ s⁻¹.

The next assay concerns the target T3, human DLL1 on 293T-hDLL1 cells. In words: flow cytometry on HEK293T-hDLL1 cells. On the technique in general: A flow cytometer gives signals particle by particle.
For B1, the binding result is listed as “no binding (tested: 20 µg/mL)”.
Turning to B2, the binding result is “no binding (tested: 20 µg/mL)”.
Turning to B3, the binding result is listed as “no binding (tested: 20 µg/mL)”.
For B4, the binding result is on record as “no binding (tested: 20 µg/mL)”.
Still for that read-out and setting: the result for B5 reads “no binding (tested: 20 µg/mL)”.

Another assay has as its target T4, human DLL4 on 293T-hDLL4 cells (human, UniProt Q9NR61 27-685).
T4 construct: whole, on cells; also called 293T-DLL4; HEK293T-hDLL4
Briefly: flow cytometry on HEK293T-hDLL4 cells.
For the molecule B1, the binding result is “no binding (tested: 20 µg/mL)”.
As to B2, the binding result is recorded as “no binding (tested: 20 µg/mL)”.
Same read-out and setting: the result for B3 reads “no binding (tested: 20 µg/mL)”; that for B4, “no binding (tested: 20 µg/mL)”.
The same measure, in the same setting: the result for B5 reads “no binding (tested: 20 µg/mL)”.

The target of another assay is T2, recombinant extracellular domain …. Briefly: ELISA, coated cyno.DLL3-ECD-his 0.2 µg/mL, antibody titrated.
As to B1, the EC50 was 6.3 ng/mL.
Still for that read-out and setting: the result for B2 reads 5.4 ng/mL; that for B3, 4.1 ng/mL.
Same read-out and setting: the result for B4 reads 3.3 ng/mL; that for B5, 3.5 ng/mL.
